From patent US20200010508A1 (REGENTS OF THE UNIVERSITY OF MICHIGAN, published 2020)
Blank lines part the entries; values can stand above or below the binder they belong to. Ends that are not written are not given here.

Key:
[1] = biological target: T1, Glypican-3 on human HCC cells (Hep3B, HepG2) and in HCC tissue (human, UniProt P51654 25-554); assay: cell-based or functional assay
[2] = biological target: T1, Glypican-3 on human HCC cells (Hep3B, …); assay: confocal microscopy, Hep3B siGPC3 vs siCL
From the text: The specificity of lead candidate peptide reagent binding was validated by siRNA knockdown of GPC3 in human HCC cells. The cells were transfected with siRNA to knockdown cell surface expression of GPC3. […] These cells were transfected with non-targeting siRNA (siCL) for use as control. […] FIG. 6-1D,E show ˜4-fold reduction in fluorescence intensity with both the peptide reagent and anti-GPC3 antibody, respectively, for Hep3B cells transfected with siRNA (siGPC3) to knock down GPC3 expression. […] FIG. 6-2M, N, O and P show the same result as original FIG. 6-1A, B, D and E.

[3] = biological target: T1, Glypican-3 on human HCC cells (Hep3B, …); assay: confocal microscopy on cells, ANOVA on log-transformed data
From the text: (§1) FIGS. 6-2A-Q show validation of specific peptide binding to cells in vitro. On confocal microscopy, we observed strong fluorescence intensity from ALL*-Cy5.5 binding to the surface (arrow) of A) Hep3B and B) HepG2 human HCC cells, and minimal signal with C) SK-Hep1 cells. D-F) Minimal signal is observed with the scrambled control peptide QLE*-Cy5.5 for all cells. Strong binding (arrow) is also observed with AF488-labeled anti-GPC3 antibody used as a positive control for G) Hep3B and H) HepG2 and minimal signal with I) SK-Hep1. […] The Hep3B versus SK-Hep1 difference was also larger for antibody than QLE (P=2.3×10⁻⁸, 6.0-fold larger). Intensity was measured with 6 replicates per condition and fitted to an ANOVA model with terms for 9 means to log-transformed data. […] We further validated specific peptide binding to GPC3 using siRNA knockdown. […] Q) Quantified fluorescence intensities. The siCL vs siGPC3 difference was 7.4 times bigger for ALL than the same difference for QLE (P=7.8×10⁻⁵), and the difference for antibody was 8.9 times bigger than for QLE (P=2.5×10⁻⁵), by ANOVA on log-transformed data. Results are an average of 6 images collected independently.

[4] = biological target: T1, Glypican-3 on human HCC cells (Hep3B, …); assay: confocal microscopy of xenograft and normal mouse liver sections, n=26
Description: FIGS. 13A-I show validation of specific peptide binding to GPC3 overexpressed in mouse HCC xenograft tumors. Confocal microscopy of A) ALL*-Cy5.5 compared to B) QLE*-Cy5.5 to sections of Hep3B xenograft tumors. Fluorescence intensities were measured from sets of 3 (dashed white) boxes with dimensions of 20×20 μm2.
The specimens were also sectioned for collection of confocal images to perform microscopic validation of peptide binding ex vivo. We found increased cell surface staining of ALL*-Cy5.5 compared with QLE*-Cy5.5 to Hep3B xenograft (arrow), FIG. 13A,B. Overexpression of GPC3 on cell surface of Hep3B xenograft was confirmed with known antibody, FIG. 13C.

[5] = biological target: T1, Glypican-3 on human HCC cells (Hep3B, …); assay: confocal microscopy on Hep3B cells with siRNA knockdown of GPC3
From the text: as §1, with “On” for “FIGS. 6-2A-Q show validation of specific peptide binding to cells in vitro. On”
The specificity of lead candidate peptide reagent binding was validated by siRNA knockdown of GPC3 in human HCC cells. The cells were transfected with siRNA to knockdown cell surface expression of GPC3. […] These cells were transfected with non-targeting siRNA (siCL) for use as control.

[6] = biological target: T1, Glypican-3 on human HCC cells (Hep3B, …); assay: flow cytometry, mean fluorescence of Hep3B cells with 0-200 nM peptide; apparent dissociation constant
Description: (§2) The apparent dissociation constant (kd) was measured for the optimized GPC3 peptide to Hep3B cells to provide an assessment of peptide binding affinity. The ALL*-Cy5.5 peptide reagent was serially diluted in PBS at concentrations ranging from 0 to 200 nM in 25 nM increments and incubated with Hep3B cells. The mean fluorescence intensities was measured on flow cytometry. The equilibrium dissociation constant kd=1/kₐ was calculated by performing a least squares fit of the data to the non-linear equation I=(I₀+Iₘₐₓkₐ[X])/([…]). I₀and Iₘₐₓ are the initial and maximum fluorescence intensities, corresponding to no peptide and at saturation, respectively, and [X] represents the concentration of the bound peptide.

[7] = biological target: T1, Glypican-3 on human HCC cells (Hep3B, …); assay: immunofluorescence on human biopsies, ANOVA on log-transformed data
[8] = biological target: T1, Glypican-3 on human HCC cells (Hep3B, …); assay: affinity restated in the discussion of the studies (flow cytometry on Hep3B cells)
Description: as §2

T1 sequence (P51654 25-554 limits assumed): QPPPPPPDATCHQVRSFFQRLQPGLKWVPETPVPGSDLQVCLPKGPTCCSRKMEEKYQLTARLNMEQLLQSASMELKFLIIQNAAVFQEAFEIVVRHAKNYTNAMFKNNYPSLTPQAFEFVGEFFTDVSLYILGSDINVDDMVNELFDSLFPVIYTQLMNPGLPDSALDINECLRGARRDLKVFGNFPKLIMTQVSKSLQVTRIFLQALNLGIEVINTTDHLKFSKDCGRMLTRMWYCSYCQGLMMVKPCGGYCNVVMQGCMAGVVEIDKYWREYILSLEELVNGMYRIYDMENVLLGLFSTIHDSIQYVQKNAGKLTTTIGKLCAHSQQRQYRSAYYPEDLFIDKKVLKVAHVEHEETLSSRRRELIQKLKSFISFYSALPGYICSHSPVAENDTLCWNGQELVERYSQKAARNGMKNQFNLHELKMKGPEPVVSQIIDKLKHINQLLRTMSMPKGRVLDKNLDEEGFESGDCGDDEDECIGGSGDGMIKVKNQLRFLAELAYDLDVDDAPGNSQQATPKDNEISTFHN

reduction of T/B ratio of ALL*-Cy5.5 by blocking with 3-fold unlabeled targeting peptide dose [1]: 1.65 fold | reduction of T/B ratio of ALL*-Cy5.5 by blocking with 10-fold unlabeled targeting peptide dose [1]: 3.56 fold
Binder: ALLANHEELFQT [unlabeled ALL* peptide (ALLANHEELFQT)]

fold reduction in fluorescence intensity on GPC3 knockdown [2]: ~4 fold | fluorescent intensity of ALL*-Cy5.5 against control peptide QLE*-Cy5.5, in vivo dual axes confocal endomicroscopy [1]: 2.9 fold | target-to-background (T/B) ratio at 2 hours, in vivo whole-body NIR fluorescence imaging of Hep3B xenograft [1]: 3.91 | target-to-background ratio of ALL*-Cy5.5 against QLE*-Cy5.5, in vivo NIR laparoscopy [1]: 2.8 fold | target-to-background ratio, in vivo NIR laparoscopy of Hep3B xenograft 2 hours after injection [1]: 8.3 | fold, intensity difference Hep3B vs SK-Hep1 against the same difference for QLE* [3]: 8.2 fold | fold, intensity difference HepG2 vs SK-Hep1 against the same difference for QLE* [3]: 3.3 fold | fold, intensity from peptide binding to HCC (Hep3B xenograft) against normal liver [4]: 2.22 fold | fold, siCL vs siGPC3 difference against the same difference for QLE [5]: 7.4 fold | Kd [6]: 71 nM | fold, signal in human HCC against adenoma [7]: 2.48 fold | fold, signal in human HCC against cirrhosis [7]: 2.05 fold | fold, signal in human HCC against normal liver [7]: 3.43 fold | Kd [8]: 71.3 nM
B1: ALL*-Cy5.5 peptide reagent (ALLANHEELFQT-GGGSK-Cy5.5) (peptide)
peptide: ALLANHEELFQTGGGSK(sulfo‑Cy5.5)
notes: also called lead candidate GPC3 peptide; optimized GPC3 peptide

target-to-background (T/B) ratio at 2 hours, in vivo whole-body NIR fluorescence imaging of Hep3B xenograft [1]: 1.12 | target-to-background ratio, in vivo NIR laparoscopy of Hep3B xenograft 2 hours after injection [1]: 3
Binder: QLELTFHANLEAGGGSK(sulfo‑Cy5.5) [QLE*-Cy5.5 scrambled control peptide (QLELTFHANLEA-GGGSK-Cy5.5)]
